In US20040076958:

T1: AA21 synthetic peptide (N21 with two conserved glycines replaced by alanine)
T1 chain: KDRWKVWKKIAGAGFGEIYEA

B1: His-tagged BDTK(38-319), BDTK kinase domain (protein)
chain: KKIGGGGFGEIYEAMDLLTRENVALKVESAQQPKQVLKMEVAVLKKLQGKDHVCRFIGCGRNEKFNYVVMQLQGRNLADLRRSQPRGTFTLSTTLRLGKQILESIEAIHSVGFLHRDIKPSNFAMGRLPSTYRKCYMLDFGLARQYTNTTGDVRPPRNVAGFRGTVRYASVNAHKNREMGRHDDLWSLFYMLVEFAVGQLPWRKIKDKEQVGMIKEKYEHRMLLKHMPSEFHLFLDHIASLDYFTKPDYQLIMSVFENSMKERGIAENEAFDWEKAGTDALL
B2: Brain Derived Tau Kinase (BDTK) (protein)
chain: MQCLAAALKDETNMSGGGEQADILPANYVVKDRWKVVKKIGGGGFGEIYEAMDLLTRENVALKVESAQQPKQVLKMEVAVLKKLQGKDHVCRFIGCGRNEKFNYVVMQLQGRNLADLRRSQPRGTFTLSTTLRLGKQILESIEAIHSVGFLHRDIKPSNFAMGRLPSTYRKCYMLDFGLARQYTNTTGDVRPPRNVAGFRGTVRYASVNAHKNREMGRHDDLWSLFYMLVEFAVGQLPWRKIKDKEQVGMIKEKYEHRMLLKHMPSEFHLFLDHIASLDYFTKPDYQLIMSVFENSMKERGIAENEAFDWEKAGTDALLSTSTSTPPQQNTRQTAAMFGVVNVTPVPGDLLRENTEDVLQGEHLSDQENAPPILPGRPSEGLGPSPHLVPHPGGPEAEVWEETDVNRNKLRINIGKSPCVEEEQSRGMGVPSSPVRAPPDSPTTPVRSLRYRRVNSPESERLSTADGRVELPERRSRMDLPGSPSRQACSSQPAQMLSVDTGHADRQASGRMDVSASVEQEALSNAFRSVPLAEEEDFDSKEWVIIDKETELKDFPPGAEPSTSGTTDEEPEELRPLPEEGEERRRLGAEPTVRPRGRSMQALAEEDLQHLPPQPLPPQLSQGDGRSETSQPPTPGSPSHSPLHSGPRPRRRESDPTGPQRQVFSVAPPFEVNGLPRAVPLSLPYQDFKRDLSDYRERARLLNRVRRVGFSHMLLTTPQVPLAPVQPQANGKEEEEEEEEDEEEEEEDEEEEEEEEEEEEEEEEEEEEEEEAAAAVALGEVLGPRSGSSSEGSERSTDRSQEGAPSTLLADDQKESRGRASMADGDLEPEEGSKTLVLVSPGDMKKSPVTAELAPDPDLGTLAALTPQHERPQPTGSQLDVSEPGTLSSVLKSEPKPPGPGAGLGAGTVTTGVGGVAVTSSPFTKVERTFVHIAEKTHLNVMSSGGQALRSEEFSAGGELGLELASDGGAVEEGARAPLENGLALSGLNGAEIEGSALSGAPRETPSEMATNSLPNGPALADGPAPVSPLEPSPEKVATISPRRHAMPGSRPRSRIPVLLSEEDTGSEPSGSLSAKERWSKRARPQQDLARLVMEKRQGRLLLRLASGASSSSSEEQRRASETLSGTGSEEDTPASEPAAALPRKSGRAAATRSRIPRPIGLRMPMPVAAQQPASRSHGAAPALDTAITSRLQLQTPPGSATAADLRPKQPPGRGLGPGRAQAGARPPAPRSPRLPASTSAARNASASPRSQSLRRESPSPSHQARPGVPPPRGVPPARAQPDGTPSPGGSKKGPRGKLQAQRATTKGRAGGAEGRAGAR

Experiments:
[1] = target: recombinant human tau (1-441), full length tau, P10636
Chain of recombinant human tau (1-441), full length tau, P10636 (P10636 whole entry, looked up, tested part not stated): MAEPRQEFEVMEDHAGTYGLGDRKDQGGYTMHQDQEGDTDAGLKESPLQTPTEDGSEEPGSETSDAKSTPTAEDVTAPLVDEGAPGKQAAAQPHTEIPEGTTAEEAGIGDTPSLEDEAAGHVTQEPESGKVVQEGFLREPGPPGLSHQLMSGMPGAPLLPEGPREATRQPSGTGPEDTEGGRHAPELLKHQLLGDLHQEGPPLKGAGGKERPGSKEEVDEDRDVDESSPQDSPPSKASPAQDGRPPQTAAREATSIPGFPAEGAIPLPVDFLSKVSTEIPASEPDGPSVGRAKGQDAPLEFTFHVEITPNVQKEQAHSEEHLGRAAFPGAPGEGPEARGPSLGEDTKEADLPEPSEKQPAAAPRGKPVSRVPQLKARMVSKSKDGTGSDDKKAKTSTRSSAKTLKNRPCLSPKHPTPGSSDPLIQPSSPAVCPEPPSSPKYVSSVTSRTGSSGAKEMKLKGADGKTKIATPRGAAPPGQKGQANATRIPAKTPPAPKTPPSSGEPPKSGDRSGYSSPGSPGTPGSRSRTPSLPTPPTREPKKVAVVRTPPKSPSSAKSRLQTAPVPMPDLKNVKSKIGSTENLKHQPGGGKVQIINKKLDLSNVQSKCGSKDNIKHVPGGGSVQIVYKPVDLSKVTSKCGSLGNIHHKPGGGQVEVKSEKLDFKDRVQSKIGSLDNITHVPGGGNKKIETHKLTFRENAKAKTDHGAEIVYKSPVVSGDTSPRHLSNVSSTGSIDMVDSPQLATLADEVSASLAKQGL

[2] = target: T1, AA21 synthetic peptide (N21 with two …)

Row | Protein | tau phosphorylation in vitro ([gamma-32P]ATP, SDS-PAGE, autoradiography) [1] | time at which tau phosphorylation was saturated, pH 6.5 [1] | time at which tau phosphorylation was saturated, pH 7.5 [1] | BDTK phosphorylation and tau phosphorylation in vitro (AA21-BDTK, AA21-tau) [2] | tau phosphorylation [1]
1 | B1 | did phosphorylate tau protein as well as BDTK itself | 120 min at pH 6.5 | tau phosphorylation was saturated at 60 min at pH 7.5 | – | –
2 | B2 | – | – | – | AA21 mutated peptide rather increased both BDTK (AA21-BDTK, from 30 to 300 )µM) and tau phosphorylation (AA21-tau, from 30 µM to 1 µM) in dose response manner | Full length BDTK (SEQ ID NO:1), and isolated BDTK kinase domain (amino acids 38-319, SEQ ID NO:4) are able to phosphorylate tau
